Source: publication PMC3351694 (Virology, 2012)
Read-outs that look alike come from different tables or passages of the source.

Key:
Experiment in all cases: SEC
[1] = molecular target: T1, bacteriophage P22 coat protein (bacteriophage P22, UniProt P26747 1-430)
[2] = molecular target: T1, bacteriophage P22 coat protein; remark: listed apart in the source
[3] = molecular target: T1, bacteriophage P22 coat protein; remark: listed apart in the source

T1 sequence (P26747 whole entry): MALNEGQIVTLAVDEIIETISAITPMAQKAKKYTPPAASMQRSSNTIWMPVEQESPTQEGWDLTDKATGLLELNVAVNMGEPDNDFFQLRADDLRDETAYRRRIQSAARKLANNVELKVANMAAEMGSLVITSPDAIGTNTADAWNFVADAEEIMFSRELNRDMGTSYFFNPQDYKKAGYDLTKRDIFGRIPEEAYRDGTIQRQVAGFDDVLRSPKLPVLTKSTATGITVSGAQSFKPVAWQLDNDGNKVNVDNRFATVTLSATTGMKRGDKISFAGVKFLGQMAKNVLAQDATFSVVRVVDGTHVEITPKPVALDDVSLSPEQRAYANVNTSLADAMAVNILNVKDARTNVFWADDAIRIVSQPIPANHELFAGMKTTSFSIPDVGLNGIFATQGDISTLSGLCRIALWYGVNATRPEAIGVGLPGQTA

B1: bacteriophage P22 scaffolding protein (natural protein, UniProt P26748 1-303, looked up)
chain: MEPTTEIQATEDLTLSGDHAAASADSLVVDNANDNAGQEEGFEIVLKDDETAPKQDPAKNAEFARRRIERKRQRELEQQMEAVKRGELPESLRVNPDLPPQPDINAYLSEEGLAKYDYDNSRALAAFNAANTEWLMKAQDARSNAVAEQGRKTQEFTQQSAQYVEAARKHYDAAEKLNIPDYQEKEDAFMQLVPPAVGADIMRLFPEKSAALMYHLGANPEKARQLLAMDGQSALIELTRLSERLTLKPRGKQISSAPPADQPITGDVSAANKDAIRKQMDAAASKGDVETYRKLKAKLKGIR
[1]
  stoichiometry N: ~360 scaffolding protein sites per PC
[2]
  1/KS (dissociation constant of scaffolding protein for PC), Snum 300: 0.77 ± 0.7 µM
  1/KS (dissociation constant of scaffolding protein for PC), Snum 360: 1.29 ± 0.95 µM
  1/KS (dissociation constant of scaffolding protein for PC), Snum 420: 1.88 ± 1.25 µM
[3]
  midpoint of the binding fit (K's, input S/C ratio): 0.88 input S/C molar ratio
  stoichiometry N: 294 ± 33 scaffolding proteins per PC
